Reference: patent US20140370022A1 (SAMSUNG LIFE PUBLIC WELFARE FOUNDATION, published 2014)

What was measured:
[1] = target: T1, mouse c-Met-Fc protein (mouse c-Met extracellular domain + Fc) (mouse, UniProt P16056 25-931); assay: ELISA, periplasmic scFv-pIII extract on coated mouse c-Met-Fc, anti-HA-HRP, OD450 as ratio to control coat (BSA, IgG)
T1 construct: extracellular domain; not shown: Fc region of IgG
Method: After a total of six rounds of panning with mouse/human c-Met were finished, the phage particles collected from the final round of panning were confirmed as colonies in the medium through infection of host cells. These colonies were taken and inoculated in a 96 well plate containing 200 μl of SB/ampicillin media and then cultured (37° C., within 3 hours). After that, for the induction of scFv-pIII protein expression, 1 mM final concentration IPTG was added to each well, followed by culturing overnight at 30° C. After that, the cultured plate was centrifuged to discard the supernatant. Then, for the collection of periplasmic fractions from the cultured cells in each well, the culture plate was treated with 40 μl of TES solution (20% w/v sucrose, 50 mM Tris, 1 mM EDTA, pH 8.0) maintained at 4° C., and then kept to stand at 4° C. for 30 minutes, so that the cells were lysed. After that, the cells were treated with 60 μl of 0.2×TES solution, and then kept to stand for 30 minutes. Finally, the plate was centrifuged and the supernatant was collected, thereby producing scFv-pIII protein on a small scale.
At the same time, a 96 well plate coated with human or mouse c-Met-Fc protein was prepared, and then 25 μl of aliquot was taken from the collected periplasmic fractions and added to each well, followed by binding for 1 hour. Then, after three or four times of washing procedures were performed using TBST, anti-HA-HRP antibody was added, followed by binding for 1 hour. The plate was again washed, followed by induction of a color development reaction (TMB substrate), and then the values of color development were measured at O.D. 450 nm. […] Since antibody in which c-Met extracellular domain binds to Fc region of IgG was used at the time of the panning, commercialized antibody (Erbitux) or BSA protein was used as a control group in order to exclude the phage particles that bind to Fc region.

[2] = target: c-Met protein (species and construct not stated); assay: SPR, Biacore T100, c-Met amine-coupled on CM5 chip, scFv as analyte
c-Met protein (species and construct not stated), sequence (P08581 whole entry, the tested form may be a part): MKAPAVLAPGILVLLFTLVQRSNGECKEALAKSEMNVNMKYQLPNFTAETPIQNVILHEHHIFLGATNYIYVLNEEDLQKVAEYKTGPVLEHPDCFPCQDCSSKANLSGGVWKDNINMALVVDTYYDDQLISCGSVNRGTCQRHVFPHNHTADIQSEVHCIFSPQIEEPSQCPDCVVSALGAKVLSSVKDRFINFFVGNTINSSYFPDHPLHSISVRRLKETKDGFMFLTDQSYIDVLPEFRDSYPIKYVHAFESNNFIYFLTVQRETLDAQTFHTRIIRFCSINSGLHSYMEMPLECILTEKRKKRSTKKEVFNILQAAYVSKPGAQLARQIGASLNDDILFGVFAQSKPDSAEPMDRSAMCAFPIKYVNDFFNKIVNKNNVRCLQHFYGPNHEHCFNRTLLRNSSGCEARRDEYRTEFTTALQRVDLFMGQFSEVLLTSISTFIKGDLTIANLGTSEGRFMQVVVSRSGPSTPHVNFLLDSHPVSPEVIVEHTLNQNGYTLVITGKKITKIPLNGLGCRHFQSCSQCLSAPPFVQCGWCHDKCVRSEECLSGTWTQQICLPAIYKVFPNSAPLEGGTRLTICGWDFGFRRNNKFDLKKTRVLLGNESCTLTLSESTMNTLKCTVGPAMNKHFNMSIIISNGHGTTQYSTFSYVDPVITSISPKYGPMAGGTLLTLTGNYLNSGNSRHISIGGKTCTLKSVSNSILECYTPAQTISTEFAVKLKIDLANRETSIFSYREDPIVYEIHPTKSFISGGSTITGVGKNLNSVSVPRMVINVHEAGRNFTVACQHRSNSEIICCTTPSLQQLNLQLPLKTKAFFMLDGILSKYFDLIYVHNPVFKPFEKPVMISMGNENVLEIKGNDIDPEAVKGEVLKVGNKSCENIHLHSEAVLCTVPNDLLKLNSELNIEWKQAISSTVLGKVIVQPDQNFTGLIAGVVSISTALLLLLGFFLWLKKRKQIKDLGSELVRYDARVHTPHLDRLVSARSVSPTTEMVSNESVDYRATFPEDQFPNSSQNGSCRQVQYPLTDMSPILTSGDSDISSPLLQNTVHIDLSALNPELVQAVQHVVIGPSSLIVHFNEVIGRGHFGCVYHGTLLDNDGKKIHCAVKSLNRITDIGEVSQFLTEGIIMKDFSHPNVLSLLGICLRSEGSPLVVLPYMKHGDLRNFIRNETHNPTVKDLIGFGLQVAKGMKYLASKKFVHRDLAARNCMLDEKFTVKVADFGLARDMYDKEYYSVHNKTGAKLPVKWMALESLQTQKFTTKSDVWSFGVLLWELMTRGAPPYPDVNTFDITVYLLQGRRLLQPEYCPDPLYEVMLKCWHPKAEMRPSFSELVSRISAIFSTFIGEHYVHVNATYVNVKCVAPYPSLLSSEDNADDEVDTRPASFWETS
Description: For the confirmation of more accurate binding affinity (coupling constant), the binding affinity of respective clones to c-Met was verified through surface plasmon resonance analysis. Respective antibody fragments were expressed in the host E. coli, followed by purification, and then dialyzed with PBS solution. Biacore T100 (GE healthcare) was used for the analysis. The c-Met protein was fixed to a dextran medium through an amine coupling reaction in the CM5 sensor chip. […] Based on these values, kinetic analysis was conducted through the BIA-evaluation program. As a result, the KD values of the 1F12 and 2A01 clones were measured to be 6⁻⁹×10⁻⁸ M and the Kd value of 2C03 was verified to be 10⁻⁷ M (Table 4).

[3] = target: T2, Control (BSA) (Bos taurus, UniProt P02769); assay: ELISA, 5 ug/ml scFv on coated Control (BSA), anti-HA-HRP
T2 construct: coated as control protein; also called BSA protein
T2 sequence (P02769 25-607 limits assumed): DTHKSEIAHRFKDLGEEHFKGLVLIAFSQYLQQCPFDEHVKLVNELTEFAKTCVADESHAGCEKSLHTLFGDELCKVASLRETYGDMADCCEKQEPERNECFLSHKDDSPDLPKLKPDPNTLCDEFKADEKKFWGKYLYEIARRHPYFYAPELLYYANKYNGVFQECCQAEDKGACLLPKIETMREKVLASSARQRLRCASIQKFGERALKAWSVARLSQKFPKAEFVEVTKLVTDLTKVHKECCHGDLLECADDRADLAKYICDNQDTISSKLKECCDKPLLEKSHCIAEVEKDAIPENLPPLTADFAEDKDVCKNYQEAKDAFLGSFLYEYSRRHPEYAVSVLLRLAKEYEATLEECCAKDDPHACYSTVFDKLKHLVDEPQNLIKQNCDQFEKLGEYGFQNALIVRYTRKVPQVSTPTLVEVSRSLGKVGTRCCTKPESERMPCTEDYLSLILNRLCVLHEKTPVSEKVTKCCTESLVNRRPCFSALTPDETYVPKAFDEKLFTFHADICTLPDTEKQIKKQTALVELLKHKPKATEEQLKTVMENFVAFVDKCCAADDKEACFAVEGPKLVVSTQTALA
Method: (§1) By using the produced scFv protein, the binding affinity to human/mouse c-Met extracellular domain+Fc protein was confirmed through ELISA. Human/mouse c-Met coated on a 96-well plate were treated with 5 μg/ml of scFv proteins (1F12, 2A01, 2C03, and 2D05), followed by binding at room temperature for 1 hour. After that, the plate was washed three times with 0.1% TBST solution, and then treated with anti-HA-HRP antibody for 1 hour, to detect the scFv proteins that bind to c-Met. After that, the plate was washed three times, and then treated with 10 μl of TMB substrate, followed by standing for 5 minutes. The reaction was stopped by using sulfuric acid solution, and then the absorbance was determined by ELISA reader. As a result, it was verified that each scFv protein had significant binding affinity to human and mouse c-Met proteins as compared with the control group (IgG, BSA) (FIG. 5A). In addition, after the cells were treated with 500 ng/ml of each scFv protein using human c-Met protein to which Fc region was not bound, the same ELISA assay was conducted.

[4] = target: T3, human c-Met-Fc protein (human c-Met extracellular domain + Fc) (human, UniProt P08581 25-932); assay: ELISA, scFv titrated 2-fold from 500 ng/ml on coated human c-Met, anti-HA-HRP, no HGF
T3 construct: extracellular domain; also called c-Met extracellular domain+Fc protein; not shown: Fc region of IgG
T3 sequence (P08581 25-932): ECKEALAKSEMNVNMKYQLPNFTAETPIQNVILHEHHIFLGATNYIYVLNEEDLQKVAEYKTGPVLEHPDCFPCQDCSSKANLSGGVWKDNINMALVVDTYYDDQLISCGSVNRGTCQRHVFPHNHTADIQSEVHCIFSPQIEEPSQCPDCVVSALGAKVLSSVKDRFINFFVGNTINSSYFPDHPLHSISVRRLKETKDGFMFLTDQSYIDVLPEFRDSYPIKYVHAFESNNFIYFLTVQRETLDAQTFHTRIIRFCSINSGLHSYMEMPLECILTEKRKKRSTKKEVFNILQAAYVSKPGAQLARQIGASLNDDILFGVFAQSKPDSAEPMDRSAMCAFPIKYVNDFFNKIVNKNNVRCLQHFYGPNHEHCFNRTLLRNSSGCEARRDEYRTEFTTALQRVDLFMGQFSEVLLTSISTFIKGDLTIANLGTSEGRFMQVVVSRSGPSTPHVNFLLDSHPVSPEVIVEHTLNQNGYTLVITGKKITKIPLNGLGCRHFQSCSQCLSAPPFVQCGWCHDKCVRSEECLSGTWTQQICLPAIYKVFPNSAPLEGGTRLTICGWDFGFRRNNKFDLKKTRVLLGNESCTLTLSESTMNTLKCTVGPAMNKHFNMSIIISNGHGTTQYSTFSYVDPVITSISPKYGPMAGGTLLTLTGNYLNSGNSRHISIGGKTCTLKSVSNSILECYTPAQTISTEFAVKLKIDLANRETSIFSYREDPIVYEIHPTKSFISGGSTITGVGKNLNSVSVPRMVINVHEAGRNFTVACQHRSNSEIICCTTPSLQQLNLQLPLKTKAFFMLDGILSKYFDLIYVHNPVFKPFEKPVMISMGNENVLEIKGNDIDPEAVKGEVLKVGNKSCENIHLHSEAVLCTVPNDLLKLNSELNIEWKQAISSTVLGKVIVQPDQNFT
Method: as §1, with “Human/mouse c-Met coated on a 96-well plate were treated with 5 μg/ml of scFv proteins (1F12, 2A01, 2C03, and 2D05), followed by binding at room temperature for 1 hour.” left out
For the verification of whether the selected scFv proteins have competitive binding affinity with the hepatocyte growth factor, which is the ligand of c-Met, the ligand competitive ELISA experiment was conducted. As in examples 2 and 4, the coated human c-Met was prepared, and respective wells were treated with samples in which each scFv protein was diluted at a 2-fold dilution from 500 ng/ml to about 1 ng/ml. After the treatment, the experiment procedure was conducted as in Example 4.

T1 sequence (P16056 25-931): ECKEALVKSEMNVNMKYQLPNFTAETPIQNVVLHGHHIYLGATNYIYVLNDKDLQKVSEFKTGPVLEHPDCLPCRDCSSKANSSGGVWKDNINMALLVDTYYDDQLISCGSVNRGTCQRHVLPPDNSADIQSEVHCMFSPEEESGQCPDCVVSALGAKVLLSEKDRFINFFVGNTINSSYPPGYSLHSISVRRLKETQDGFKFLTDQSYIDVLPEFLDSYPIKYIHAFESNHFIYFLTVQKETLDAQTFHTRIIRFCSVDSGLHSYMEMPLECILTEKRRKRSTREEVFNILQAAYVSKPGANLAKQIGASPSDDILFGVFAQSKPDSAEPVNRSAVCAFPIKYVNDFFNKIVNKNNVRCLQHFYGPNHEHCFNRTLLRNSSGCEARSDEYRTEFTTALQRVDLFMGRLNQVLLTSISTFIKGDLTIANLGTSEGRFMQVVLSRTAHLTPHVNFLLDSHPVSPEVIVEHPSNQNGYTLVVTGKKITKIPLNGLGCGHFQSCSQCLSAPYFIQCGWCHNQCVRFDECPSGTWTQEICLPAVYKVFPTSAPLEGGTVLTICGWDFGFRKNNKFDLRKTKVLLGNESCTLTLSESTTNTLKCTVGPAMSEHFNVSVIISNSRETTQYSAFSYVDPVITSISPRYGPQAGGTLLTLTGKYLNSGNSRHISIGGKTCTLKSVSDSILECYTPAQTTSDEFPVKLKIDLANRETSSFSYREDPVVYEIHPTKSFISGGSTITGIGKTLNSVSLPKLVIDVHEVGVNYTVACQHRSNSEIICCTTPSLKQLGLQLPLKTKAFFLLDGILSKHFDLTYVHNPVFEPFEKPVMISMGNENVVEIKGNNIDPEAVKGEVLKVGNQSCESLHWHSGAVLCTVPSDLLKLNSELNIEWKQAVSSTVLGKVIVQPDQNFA

Binder | binding result [1] | Kd [2] | koff [2] | kon [2] | binding result [3] | EC50 (read off the curve) [4]
2A01 scFv antibody fragment (scFv, Soluble scFv of about 28 kDa expressed in E. coli TOP10F' and purified over Ni-NTA; also called 2A01 clone; 2A1) scFv: EVQLLESGGGLVQTGGSLRLSCAASGFTFSSYDMSWVRRAPGKGLEWVSWISHGGSSISYADSVKGRFTISRDNSKNTLYLQMNSLRAEDTAVYYCAKDAYPIRQETFDYWGQGTLVTVSSGGGGSGGGGSGGGGSQSVLTQPPSASGTPGQRVTISCSGSSSNIGNNDVSWYQQLPGTAPKLLIYPDSQRPSGVPDRFSGSKSGTSASLAISGLRSEDEADYYCASWDSSLSGYVFGGGTKLTVL | binds | 66 nM | 0.153 s⁻¹ | 2.32e+06 M⁻¹ s⁻¹ | no binding (tested: 5 ug/ml) | –
1F12 scFv antibody fragment (scFv, Soluble scFv of about 28 kDa expressed in E. coli TOP10F' and purified over Ni-NTA; also called 1F12 clone) scFv: EVQLLESGGGLVQPGGSLRLSCAASGFTFSNYAMSWVRQAPGKGLEWVSGISYSGGSTYYADSVKGRFTISRDNSKNTLYLQMNSLRAEDTAVYYCAKASRSCQRPACSYANGMDVWGQGTLVTVSSGGGGSGGGGSGGGGSQSVLTQPPSASGTPGQRVTISCTGSSSNIGNNYVTWYQQLPGTAPKLLIYYNNHRPSGVPDRFSGSKSGTSASLAISGLQSEDEADYYCGSWDYSLSAYVFGGGTKLTVL | binds | 93.3 nM | – | – | no binding (tested: 5 ug/ml) | ~0.04 µg/mL
2C03 scFv antibody fragment (scFv, Soluble scFv of about 28 kDa expressed in E. coli TOP10F' and purified over Ni-NTA; also called 2C03 clone; 2CO3) scFv: EVQLLESGGGLVQPGGSLRLSCAASGFTFSNYAMSWVRQAPGKGLEWVSAISYDSGSIYYADSVKGRFTISRDNSKNTLYLQMNSLRAEDTAVYYCAKAARSCRNWSCSYANGMDVWGQGTLVTVSSGGGGSGGGGSGGGGSQSVLTQPPSASGTPGQRVTISCTGSSSNIGSNYVSWYRQLPGTAPKLLIYSDSNRPSGVPDRFSGSKSGTSASLAISGLRSEDEADYYCGSWDDSLSGYVFGGGTKLTVL | binds | 239 nM | 0.186 s⁻¹ | 776000 M⁻¹ s⁻¹ | no binding (tested: 5 ug/ml) | –
